# According to the Immune Epitope Database (IEDB):
# Key:
# [1] = biological target: HLA-A*03:01; assay: IEDB peptide-MHC binding, purified MHC/direct/fluorescence; filed as Kd, often an IC50 or EC50 that approximates it; ≥ and ≤ were set here for values at or beyond the usual limits of such assays
# [2] = biological target: HLA-B*27:05; assay: as above
# [3] = biological target: HLA-A*02:01; assay: as above
# [4] = biological target: HLA-B*58:01; assay: as above
# [5] = biological target: HLA-B*15:01; assay: as above
# [6] = biological target: HLA-B*07:02; assay: as above
# [7] = biological target: HLA-A*01:01; assay: as above
# [8] = biological target: HLA-A*69:01; assay: as above
# [9] = biological target: HLA-B*40:01; assay: as above
# [10] = biological target: HLA-B*08:01; assay: IEDB peptide-MHC binding, purified MHC/competitive/radioactivity; filed as Kd, often an IC50 or EC50 that approximates it; ≥ and ≤ were set here for values at or beyond the usual limits of such assays
# [11] = biological target: HLA-A*24:02; assay: IEDB peptide-MHC binding, purified MHC/competitive/fluorescence; ≥ and ≤ were set here for values at or beyond the usual limits of such assays
# [12] = biological target: HLA-A*02:01; assay: IEDB peptide-MHC binding, purified MHC/competitive/fluorescence; filed as Kd, often an IC50 or EC50 that approximates it; ≥ and ≤ were set here for values at or beyond the usual limits of such assays
# [13] = biological target: HLA-A*02:01; assay: IEDB peptide-MHC binding, purified MHC/competitive/fluorescence; ≥ and ≤ were set here for values at or beyond the usual limits of such assays
# [14] = biological target: HLA-B*39:01; assay: IEDB peptide-MHC binding, purified MHC/competitive/fluorescence; filed as Kd, often an IC50 or EC50 that approximates it; ≥ and ≤ were set here for values at or beyond the usual limits of such assays; settings: source organism: Escherichia coli str. K-12 substr. MG1655
# [15] = biological target: HLA-A*02:01; assay: IEDB peptide-MHC binding, purified MHC/competitive/radioactivity; filed as Kd, often an IC50 or EC50 that approximates it; ≥ and ≤ were set here for values at or beyond the usual limits of such assays
# [16] = biological target: HLA-A*02:03; assay: as above
# [17] = biological target: HLA-A*02:06; assay: as above; settings: source organism: Vaccinia virus WR
# [18] = biological target: HLA-A*23:01; assay: as above; settings: source organism: SARS coronavirus Tor2
# [19] = biological target: HLA-A*24:02; assay: as above; settings: source organism: SARS coronavirus Tor2
# [20] = biological target: HLA-A*26:01; assay: as above
# [21] = biological target: HLA-A*29:02; assay: as above
# [22] = biological target: HLA-A*30:02; assay: as above
# [23] = biological target: HLA-A*31:01; assay: IEDB peptide-MHC binding, purified MHC/direct/fluorescence; filed as Kd, often an IC50 or EC50 that approximates it; ≥ and ≤ were set here for values at or beyond the usual limits of such assays
# [24] = biological target: HLA-A*11:01; assay: as above; settings: source organism: SARS-CoV1
# [25] = biological target: HLA-B*08:01; assay: as above
# [26] = biological target: HLA-A*02:02; assay: IEDB peptide-MHC binding, purified MHC/competitive/radioactivity; filed as Kd, often an IC50 or EC50 that approximates it; ≥ and ≤ were set here for values at or beyond the usual limits of such assays; settings: source organism: Vaccinia virus WR
# [27] = biological target: HLA-B*51:01; assay: as above
# [28] = biological target: HLA-A*01:01; assay: as above; settings: source organism: Mammarenavirus guanaritoense
# [29] = biological target: HLA-A*30:01; assay: as above; settings: source organism: Mammarenavirus guanaritoense
# [30] = biological target: HLA-A*32:01; assay: as above; settings: source organism: Mammarenavirus guanaritoense
# [31] = biological target: HLA-B*35:01; assay: as above
# [32] = source organism: Giardia lamblia ATCC 50803
# [33] = source organism: Vaccinia virus WR
# [34] = source organism: Zaire ebolavirus
# [35] = source organism: Dengue virus 1 Brazil/97-11/1997
# [36] = source organism: Vaccinia virus
# [37] = source organism: SARS coronavirus Tor2
# [38] = source organism: Dengue virus 4 Philippines/H241/1956
# [39] = source organism: Salmonella enterica subsp. enterica serovar Typhimurium
# [40] = source organism: Dengue virus 3 Martinique/1243/1999
# [41] = source organism: Mammarenavirus guanaritoense
# [42] = source organism: Lassa virus Josiah
# [43] = source organism: Dengue virus 2 Jamaica/1409/1983
# [44] = source organism: Dengue virus 1 Singapore/S275/1990
# [45] = source organism: Sudan ebolavirus
sequence,measurement,setting,value
ATSGYRIAY,Kd,[1]; [32],≥ 20 µM
same,Kd,[2]; [32],≥ 20 µM
same,Kd,[3]; [32],≥ 20 µM
same,Kd,[4]; [32],1.65 µM
same,Kd,[5]; [32],0.045 µM
same,Kd,[6]; [32],≥ 20 µM
same,Kd,[7]; [32],0.0687 µM
DAYRRIHSL,Kd,[8]; source organism: Homo sapiens,0.119 µM
same,Kd,[6]; source organism: Homo sapiens,16.4 µM
DECEFELAL,Kd,[9]; source organism: Mycobacterium tuberculosis,0.803 µM
EAKRKLTEL,Kd,[10]; [33],0.00245 µM
EAMNEENRF,IC50,[11]; [34],≥ 147 µM
EARKTFVEL,Kd,[10]; [35],0.0971 µM
EDPSSGYYS,IC50,[11]; [34],≥ 185 µM
EKIIHFLTI,Kd,[10]; [33],0.00504 µM
ELLEPLYDV,Kd,[12]; source organism: Escherichia coli,0.0018 µM
EPKISLLPL,Kd,[10]; [33],0.00853 µM
FGNLSPETL,IC50,[11]; [36],57.8 µM
same,IC50,[13]; [36],59.5 µM
FHNDSTPRY,Kd,[14],3.47 µM
FLNISWFYI,Kd,[15]; [33],0.0142 nM
same,Kd,[16]; [33],0.0011 µM
same,Kd,[17],0.000667 µM
FMGRIRSVY,Kd,[18],≥ 77.8 µM
same,Kd,[19],≥ 55.9 µM
same,Kd,[20]; [37],2.24 µM
same,Kd,[21]; [37],0.0017 µM
same,Kd,[22]; [37],0.000157 µM
same,Kd,[1]; source organism: SARS-CoV1,2.34 µM
same,Kd,[3]; source organism: SARS-CoV1,9.16 µM
same,Kd,[4]; source organism: SARS-CoV1,6 µM
same,Kd,[23]; source organism: SARS-CoV1,0.123 µM
same,Kd,[5]; source organism: SARS-CoV1,0.393 µM
same,Kd,[24],18.2 µM
same,Kd,[7]; source organism: SARS-CoV1,5.87 µM
same,Kd,[25]; source organism: SARS-CoV1,0.605 µM
FNKTIFLSE,Kd,[10]; [33],0.255 µM
FTFSNVCESV,Kd,[12]; source organism: Vaccinia virus Tian Tan,0.0084 µM
FVNFNSVKNL,Kd,[12]; source organism: Vaccinia virus L-IPV,0.489 µM
same,Kd,[16]; [33],0.318 µM
same,Kd,[17],2.2 µM
same,Kd,[26],2.02 µM
GEEFFHQYL,Kd,[9]; source organism: Mammarenavirus juninense,0.0102 µM
GIMAVGLVSL,Kd,[16]; [38],0.0241 µM
same,Kd,[10]; [38],1.23 µM
GMFGGCFAA,Kd,[8]; [39],2.77 µM
same,Kd,[3]; [39],0.01 µM
same,Kd,[23]; [39],1.22 µM
same,Kd,[5]; [39],0.161 µM
GMKAFTAAV,Kd,[8]; [39],3.56 µM
same,Kd,[2]; [39],7.26 µM
same,Kd,[3]; [39],0.281 µM
same,Kd,[23]; [39],0.0748 µM
same,Kd,[5]; [39],0.059 µM
GPLVAGGLLI,Kd,[27]; [40],6.03 µM
GTDPYRPSF,Kd,[20]; [41],≥ 77.9 µM
same,Kd,[21]; [41],11 µM
same,Kd,[28],7.15 µM
same,Kd,[22]; [41],5.28 µM
same,Kd,[29],≥ 30.3 µM
same,Kd,[30],2.43 µM
HEHDQIGDI,IC50,[11]; source organism: Variola virus,23.8 µM
IMKNHLRDI,Kd,[15]; [42],12500 nM
IMVGNETGL,Kd,[15]; [42],4170 nM
INRKGKVIGL,Kd,[10]; [38],3.66 µM
IPFSTEDGQG,Kd,[31]; [40],1.73 µM
IPITAAAWYL,Kd,[27]; [43],6.23 µM
same,Kd,[10]; [43],3.76 µM
IPRRIRQGL,Kd,[6]; source organism: Human immunodeficiency virus type 1 (WMJ2 ISOLATE),0.0948 µM
IRELMSVPY,Kd,[2]; source organism: Tacaribe virus strain V7,≥ 20 µM
KIDQIIHDF,IC50,[11]; [34],46.9 µM
same,IC50,[13]; [34],66.4 µM
KRTLAAMPE,IC50,[11]; [34],42.9 µM
LAKRFSRGL,Kd,[10]; source organism: Dengue virus 3 Singapore/8120/1995,0.962 µM
LAVSGVYPL,Kd,[31]; [44],0.0832 µM
LEHGLFPQL,IC50,[11]; [34],8.3 µM
same,IC50,[13]; [34],≥ 73.2 µM
LFLPKLVVG,IC50,[11]; [34],1.56 µM
same,IC50,[13]; [34],35.3 µM
LLGCAANWI,Kd,[15]; source organism: Hepatitis B virus subtype ayw,≥ 5000 nM
LLGPVIGML,Kd,[12]; source organism: Escherichia coli 536,0.0034 µM
LMTLKDAML,Kd,[15]; [42],893 nM
LPMLYFLYV,Kd,[10]; [33],0.00251 µM
LYDRLASTV,IC50,[11]; [45],1.32 µM
same,IC50,[13]; [45],7.48 µM
MLLCHKPTL,Kd,[10]; [33],0.0187 µM
MPTYKHLIM,Kd,[10]; [33],0.00013 µM
MVQADSGCVV,Kd,[27]; [43],≥ 30.5 µM
MYKSRVERV,Kd,[10]; [33],0.0465 µM
NAPDDLVLF,IC50,[11]; [34],≥ 107 µM
NLATSIYTI,Kd,[12]; source organism: Variola virus,0.0011 µM
NMKFKNSVE,Kd,[10]; [33],1.34 µM
NPKFFKVYL,Kd,[10]; [33],0.19 µM
NQATTKTTF,Kd,[4]; source organism: SARS-CoV1,9.27 µM
same,Kd,[5]; source organism: SARS-CoV1,0.203 µM
same,Kd,[24],≥ 79.9 µM
same,Kd,[6]; source organism: SARS-CoV1,19.8 µM
same,Kd,[9]; source organism: SARS-CoV1,≥ 57.3 µM
same,Kd,[25]; source organism: SARS-CoV1,7.15 µM
PWLTEKEAM,IC50,[11]; [34],0.435 µM
same,IC50,[13]; [34],≥ 216 µM
QLVKGFERFQ,Kd,[12]; source organism: Variola virus,0.634 µM
QVKDEKLNL,Kd,[12]; source organism: Variola virus,0.324 µM
RNALDNLAVL,Kd,[10]; source organism: Dengue virus 2 16681-PDK53,6.43 µM
RPRHQGVMV,Kd,[6]; source organism: Homo sapiens,0.0515 µM
RTNDWDFVV,Kd,[15]; source organism: dengue virus type 2,167 nM
SIFLIFSII,Kd,[10]; source organism: Vaccinia virus Copenhagen,0.858 µM
SIHAHHQWM,Kd,[10]; [35],0.349 µM
SIRYRQRLI,Kd,[10]; [33],0.218 µM
SIVSPFIPLL,Kd,[15]; source organism: Hepatitis B virus,≥ 25000 nM
SKSTDFLDP,IC50,[11]; [34],≥ 592 µM
SLLMWITQCFL,Kd,[15]; source organism: Homo sapiens,≥ 50000 nM
SPIINREGKV,Kd,[27]; [40],≥ 69.6 µM
SSKYYIKNI,IC50,[11]; [36],≥ 1450 µM
TMYYKDVTV,Kd,[15]; source organism: Human alphaherpesvirus 1 strain 17,25 nM
TTLPVNVAF,Kd,[8]; source organism: SARS-CoV1,0.02 µM
same,Kd,[4]; source organism: SARS-CoV1,0.329 µM
same,Kd,[5]; source organism: SARS-CoV1,1.76 µM
same,Kd,[24],≥ 27.3 µM
same,Kd,[6]; source organism: SARS-CoV1,5.76 µM
VHEHDQIGD,IC50,[11]; source organism: Variola virus,1.87 µM
VKPKGKVVDL,Kd,[10]; [38],2.15 µM
VYQVNNLEE,IC50,[11]; [34],≥ 254 µM
WALCEALTL,Kd,[31]; [43],0.641 µM
WALCESITL,Kd,[31]; [35],0.0757 µM
WPLNEGIMAV,Kd,[27]; [44],0.304 µM
YLKWRWLHF,Kd,[25]; source organism: Burkholderia mallei ATCC 23344,0.002 µM
YRGTTFAEG,IC50,[11]; [34],≥ 147 µM
